From PMC8993412 (Journal of Molecular Biology, 2022)

Biological target: SARS-CoV-2 nucleocapsid (N) protein, full-length (recombinant) (SARS-CoV-2, reference, UniProt P0DTC9)
Assay: ELISA

B1: IgG 16485 (anti-N) (antibody, V domains shown)
VH: EVQLVESGGGLVQPGGSLRLSCAASGFNIYSSSIHWVRQAPGKGLEWVAYISSYSGYTSYADSVKGRFTISADTSKNTAYLQMNSLRAEDTAVYYCARVPWYYAYSFGFFASFGGMDYWGQGTLVTVSS
VL: DIQMTQSPSSLSASVGDRVTITCRASQSVSSAVAWYQQKPGKAPKLLIYSASSLYSGVPSRFSGSRSGTDFTLTISSLQPEDFATYYCQQYSGYHFFPITFGQGTKVEIK
EC50: 19 nM
